Test results: paper PMC5876331, “RING tetramerization is required for nuclear body biogenesis and PML sumoylation” (Nature Communications, 2018)
Where “and” joins values, the source holds several entries; their conditions need not be identical. Equal entries are not always repeated.

Experiments:
[1] = target: the molecule itself; assay: crystal structure; PML RING49-104 crystallised at 26 mg ml^-1, 500 mM ammonium sulfate, 1 M lithium sulfate, 100 mM sodium citrate, 4 °C; 1.6 Å, Zn SAD; 4 molecules per ASU
[2] = target: the molecule itself; assay: AUC; sedimentation velocity, 200,000g, 25 °C, 20 mM Tris, 100 mM NaCl, pH 8.0, with/without 1 mM DTT; 1 mg ml^-1 (wild type also 5 mg ml^-1); SEDFIT c(s)
[3] = target: the molecule itself; assay: SEC-MALS; pooled gel filtration peaks of PML RING1-119 re-analysed on WTC-015S5 column, 40 μl injection, 0.5 ml min^-1, DAWN HELEOS-II MALS

Protein	stoichiometry N [1]	stoichiometry N [2]	stoichiometry N [3]
PML RING49-104 domain (amino acids 49-104), wild type (domain or fragment, UniProt P29590 49-104, looked up, PML (promyelocytic leukemia protein), RING domain, amino acids 49-104; residues 51-97 visible in the electron density map; Two Zn ions per subunit; not shown: His6, N-terminal, cleaved) EEEFQFLRCQQCQAEAKCPKLLPCLHTLCSGCLEASGMQCPICQAPWPLGADTPAL	4	2	–
PML RING1-119 (amino acids 1-119), wild type (domain or fragment, UniProt P29590 1-119, looked up, PML, amino acids 1-119 (extended RING); theoretical molecular weight 13.1 kDa; also called extended RING; long version of PML RING; not shown: His6, N-terminal, cleaved) MEPAPARSPRPQQDPARPQEPTMPPPETPSEGRQPSPSPSPTERAPASEEEFQFLRCQQCQAEAKCPKLLPCLHTLCSGCLEASGMQCPICQAPWPLGADTPALDNVFFESLQRRLSVY	–	–	4 and 2
